Measurements: the supplement of paper PMC12042874
± gives the uncertainty stated by the source.

Test: amyloid nucleation score (Sup35N fusion, yeast selection) (log enrichment); library NNK1; higher = more nucleation; inactive = no reads after selection
In short: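 Libraries of peptides of 20 random codons fused to Sup35N were expressed in psi-negative yeast and induced 24 hours with 100 μM copper sulfate. Selection was 7 days at 30°C on medium lacking adenine and uracil, and plasmid inserts were Illumina-sequenced before and after selection. Nucleation score is the DiMSum log enrichment of output over input reads, centred on the mode score of non-aggregating sequences, and sequences with under 100 input reads were left out.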

Substance | amyloid nucleation score
RSSSYNSLIRKISDKLVGAA | 1.09 ± 0.56
MVDFNSRSKYSVYLSHRGKF | 1.7 ± 0.11
GPNTPSWYGCL | 0.196 ± 0.6
RNELTVFGLISPWESVFNLG | inactive
VVKSSTPSSDPTTASRIWLL | -0.26 ± 0.43
PYKLGCICITNDFSQAPTVA | -0.652 ± 0.92
LNAESLMSRFVCGMFVVTKG | 0.112 ± 1.2
FVPLTVN | -0.068 ± 0.28
MIRFKQT | -0.651 ± 0.45
HEGMLPIDVLRHSRPRQPFV | -0.686 ± 0.83
NMLFLSRGDP | -0.499 ± 1.9
GLGGYT | -0.155 ± 0.49
ACDVNSCVHCMSTVKFFPRP | 4.2 ± 0.11
VWNYVYGMMWCM | 5.54 ± 0.09
QELWHMYSIYYVFRTGDHIY | -0.163 ± 0.27
LSKYP | 0.383 ± 0.35
MVKYYNTQHDGVSFIEIRLL | 0.527 ± 0.33
VLMITGVCCSHNMLVLADKR | 6.609 ± 0.057
FIEHTYVEEG | 0.19 ± 0.23
TTPGALSSRTMSMPDVLGIE | 1.37 ± 0.5
YDTFSPRSWS | 2.02 ± 0.62
EDSSTSLLVGMELKRLTVSF | 0.258 ± 0.35
ENITPPLYNDDYRYQ | 0.305 ± 0.58
FDMCSGISGD | 0.839 ± 0.36
GPSLFG | 0.121 ± 0.37
VKSSFNMSARVVLDENIHER | -0.067 ± 0.69

Substance | amyloid nucleation score
TCDFAAWICFYISLWVRVKI | -0.382 ± 0.61
GRDLPYMTRRNTLWSSKVVF | 0.206 ± 0.35
VITGYVCMDSVQFIWYVVWV | -0.638 ± 1
FRVFIYPMWRSMWCFGYKEG | inactive
YSGVLFSTAVEYGGRGLVHE | inactive
RLCWQDIGTLFVSWPRMIFV | 0.071 ± 0.45
FANFIAVMVTGTILF | inactive
CVGRQLAGKAYLVLRWRECD | -0.372 ± 1.4
GSVRRKRHGHLDV | inactive
LDFNLICLYFLM | 5.37 ± 0.072
AHSCSLV | 0.61 ± 0.7
HSNMVNS | -0.73 ± 0.33
ILYTSTVGTQLPKDGLDC | 0.593 ± 0.34
ENARHRCDQ | 0.571 ± 0.38
VCIVPIVYPLFKFSVSNDPT | -0.202 ± 0.57
VYTKYICWGCVNAQRFDHGT | 8.269 ± 0.049
FSVMKCWPSPRPVNRFLIYA | -0.706 ± 0.46
LKTYFGVVSRTLGLCLREEI | 0.489 ± 0.43
LCIIYVNYSGLLMTVNISSF | inactive
RYGAESELTPRSASHGYWKF | -0.313 ± 1.1
FYGCFRVHCVISMLGWR | 0.109 ± 0.36
CSSWVMGLIFWECLKNMDKV | -1.39 ± 1.3
GARVTLYAVS | -0.475 ± 0.36
YKEFVLYILYRLGLMIRKA | inactive
GLMDRRTFITICVYPFMESW | 4.37 ± 0.071
RTRLFHDLLLCAAHIRLRIR | 0.133 ± 0.38

Substance | amyloid nucleation score
DSDGFQRVPD | -0.736 ± 0.68
ENLRHTLHKFITI | 0.262 ± 0.62
SMEGLMSLMHSRISRFVFRV | 0.168 ± 1.2
YIVGPIGVFSY | 2.25 ± 0.55
RYPPG | -0.077 ± 1.1
FISVMTLRLEKFEVVGDMKL | -0.43 ± 0.39
MKFFRRFYREYF | -0.431 ± 1
IRHIRPFFNVKDI | -0.006 ± 0.37
RDTICITL | 0.311 ± 0.82
LGFPMRSVGQI | inactive
GRGVLSSPSALGRFSLTEGM | -0.444 ± 0.44
MFCLALECEVHLGMHYYNHA | 0.906 ± 0.2
VLRKTFGCFETMV | 3.92 ± 0.073
DTVSLWLPARMTNDNFQDLS | 0.399 ± 0.22
GSGNSHLLYRSSNRCLVLYR | -0.134 ± 0.32
CCLEWRWLRMEDDPVNGEDV | -0.073 ± 0.43
ELGLSINFQIANFAACQGYI | 1.99 ± 0.24
FLSRGSVWVVGSTFECHYEW | 0.205 ± 0.56
IWGKC | -0.644 ± 0.76
KLILWGRLSANNFYYSFGFL | -0.214 ± 0.27
SIKCGVVHLNRMVRAQSKLC | 0.136 ± 1.5
ILYGISSFESIADWAGLMSV | 0.535 ± 0.84
KNKVTFKVG | 0.22 ± 0.3
ERAQYMSRTVRRVSFKSFFC | 3.55 ± 0.13
KLKINCMYN | 2.03 ± 0.45
VVYHAFDALLNLCRSSYRGH | -0.811 ± 0.52

Substance | amyloid nucleation score
AVQFCCWDMRTVIAS | 5.76 ± 0.066
DYFIVGTSVGGDSVTLDNQM | 0.042 ± 0.34
TAVVENCLPIWVVYSSKMY | 0.018 ± 0.6
LRNVSFSDFVYWSGFFRGVV | inactive
MYTFN | -0.031 ± 0.19
PSFSDLSHALGSSLESWGYR | 0.021 ± 0.8
LVGRYSWWQRRRHGTCMGTV | 0.629 ± 0.54
YYHRSNTLLSIYVSKLLTNN | -0.183 ± 1.2
FCNNAPRQEWPILN | -1.31 ± 0.49
YSSVDDGGDQHRGLSKAGHN | -0.525 ± 0.64
FTYRGYSDQLMVSLLSLLSE | 1.68 ± 0.48
YVQLLMVHNAMYRSAGIFSY | 0.572 ± 0.56
SVVLQTHFAFSSFELKSKVA | -0.54 ± 0.39
MLLWSVSLNKKKTLKECRRQ | 1.16 ± 0.67
RMALCKSVCFTFWNIF | 3.69 ± 0.13
WDEFGVDEWSYWLLLWYVAR | 0.799 ± 0.97
VLSAYSFYVSIWYNFSFIYG | 0.689 ± 0.57
RFHNRFLYLFKFIQAQINKC | 0.187 ± 0.41
RYNCVDV | -0.765 ± 0.52
TIYISVSNRSVDSKDMGYGS | inactive
NSYFWSGEIIIEYQRP | -1.23 ± 0.65
MWSGLIDYMEYLLGWLCT | 0.528 ± 1.2
MMLRLRT | inactive
NIIDVTSDSCKPYHILEAIV | 0.015 ± 0.34
IHHSLHYPLYSWKSNWRTWG | -0.353 ± 0.61
PKSIGAFLTCHISRHVYYVI | 1.08 ± 0.66

Substance | amyloid nucleation score
SLMTQDCNFRYYLKRCI | 0.894 ± 0.63
LASHHLACCYPNLSTSYLNP | -0.118 ± 0.84
SDIMGTVLSYFGINLVYAPC | inactive
PVAVVGILHPVFDRRPMRTV | -0.031 ± 0.89
TCILDHGPSMGRHSLGALIL | -0.969 ± 1.1
RQYDMDLVWKRSQNARKRS | 0.033 ± 0.7
GPHLIKVCFSEPMGFKVFLL | 2.12 ± 0.14
FLYVNLL | 0.091 ± 0.19
FSMVLSSTMDLRRELLWNSV | -0.299 ± 0.73
FQGVGDIGSVLHAMFLCYGS | 2.94 ± 0.15
RYICSYCYALCGFGDYYGGK | 0.24 ± 0.34
GDDLQFT | 1.88 ± 0.69
ADTCPFCDHWTQSSNRWQEL | 0.692 ± 0.41
SPKPYFSRKYVIKIHKRS | -1.54 ± 1.4
HGKFRHLSCTASSNEVEGNN | 1.17 ± 0.58
YFAEDSCERFAPDWVRLSTR | -0.425 ± 1.3
DSASGNILYIRKLVI | 1.84 ± 0.13
VYVDVSFPPPVFEWCGPQIT | 0.392 ± 0.69
ARCCWRG | -0.849 ± 1.1
SMDNYIVNSSTVWPSSFSLK | 4.73 ± 0.075
RKRNKYILYYRCNRWFQLYC | -0.323 ± 1.6
VLHEGCIMFKKLLLKALCRR | -0.128 ± 0.45
GLVHMPGHLRVLRQLLSA | 0.377 ± 0.56
